From US20070184522A1, “Cell death modulation via antagonists of Fasl and Fas activation” (University of Pittsburgh of the Commonwealth System of …, priority 2004, published 2007)

B1: FasL: recombinant soluble Fas Ligand, cognate ligand of Fas, used to induce apoptosis (protein)
chain: QLFHLQKELAELRESTSQMHTASSLEKQIGHPSPPPEKKELRKVAHLTGKSNSRSMPLEWEDTYGIVLLSGVKYKKGGLVINETGLYFVYSKVYFRGQSCNNLPLSHKVYMRNSKYPQDLVMMEGKMMSYCTTGQMWARSSYLGAVFNLTSADHLYVNVSELSLVNFEESQTFFGLYKL

Columns and labels:
[1] = target: endogenous Fas of Jurkat cells (human) (UniProt P25445); test: cell-based or functional assay
[2] = target: CFP-tagged and YFP-tagged Fas expressed in Hepa 1-6 cells; test: cell-based or functional assay
[3] = tested on: Jurkat cells; test: Fas-ligand induced apoptosis in Jurkat cells (Trypan Blue, flow cytometry); format: cell-based, human
Protocol: For FIG. 4a, Jurkat cells (1.5×10^5) were overnight treated in triplicate with 5 ng/ml of crosslinked human Fas ligand with or without 5 μg/ml of recombinant AlphaMet or 1 μg/ml of the indicated polypeptides. Percent apoptosis was determined by Trypan Blue staining using a hemocytometer. The data are representative and were repeated at least four times. […] The 17 kDa fragment of cleaved Caspase 3 is visualized by this antibody. The blot was reprobed for β-actin as a loading control. For FIG. 4c, serum deprived Hepa 1-6 cells (3×10^5) were overnight treated with 1 μg/ml of crosslinked mouse Fas ligand with or without AlphaMet or the indicated polypeptide. Media were collected and centrifuged to pellet the dead cells. […] The data in FIG. 4c represents three independent experiments.
Apoptosis assay. Pre-washed Jurkat cells in RPMI 1640 medium containing 1% FBS were inoculated in 96-wells at a density of 10^5 cells per well. Apoptosis was induced by cross-linked human Fas-ligand (R&D Systems) at a concentration of 0.5 ng/ml or Anti-Fas (human, activating) clone CH11 (Upstate biotechnology) at a concentration of 500 ng /ml. Hepa 1-6 cells were overnight starved before induction of apoptosis. The apoptosis in Hepa 1-6 was induced by anti-mouse Fas antibody Jo2 (200 ng/ml) or human recombinant Fas-ligand. The extent of cell viability and apoptosis was determined by several methods such as Trypan Blue stain, flow cytometry, LDH assay, and Hoechst staining.

[4] = target: T1, Fas trimerization in Jurkat cells (Homo sapiens, UniProt P25445); test: Chemical crosslinking (DTSSP) and Western blot of Fas trimerization in Jurkat cells; format: cell-based; conditions: Fas-Ligand and DTSSP
T1 construct: endogenous in cells; host or cells: Jurkat
T1 sequence (P25445 26-335): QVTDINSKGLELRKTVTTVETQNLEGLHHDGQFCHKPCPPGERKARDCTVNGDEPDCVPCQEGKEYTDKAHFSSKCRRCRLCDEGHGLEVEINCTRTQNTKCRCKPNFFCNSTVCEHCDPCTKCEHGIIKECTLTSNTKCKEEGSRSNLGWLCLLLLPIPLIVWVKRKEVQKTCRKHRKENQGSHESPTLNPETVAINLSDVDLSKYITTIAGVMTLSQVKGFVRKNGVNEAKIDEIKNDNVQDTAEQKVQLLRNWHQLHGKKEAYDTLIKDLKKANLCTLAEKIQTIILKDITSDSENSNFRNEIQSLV
Protocol: FIG. 3a presents data collected from Jurkat cells (1×10^6) treated with 2 μg/ml of Fas Ligand with or without AlphaMet for 30 minutes on ice. Cells were washed with PBS twice and then incubated with 2 mM of DTSSP in PBS for 30 minutes. The crosslinking process was stopped by 20 mM of Tris (pH 7.5) for another 30 minutes. Cells were spun down and washed with PBS twice and lyzed in RIPA buffer. Cell lysates were subjected to SDS-PAGE under non-reducing or reducing conditions (FIG. 3b) and Western blot analysis using the mouse monoclonal antibody against human Fas. FIG. 3c depicts the quantification of the data in FIG. 3a by densitometry. The data are the mean and SE from three different independent crosslinking and Western blot experiments. […] Frame A: Acceptor CFP-Fas image; Frame B: Acceptor pre-bleach CFP-Fas image; Frame C: Acceptor post-bleach image. Frame D: Donor YFP-Fas image; Frame E: Donor pre-bleach image; Frame F: […]. The CFP-Fas strength in the selected region obtained a gain of 19.3% efficiency in the presence of FasL for 15 minutes. No FRET was observed without FasL. […] FIG. 3e depicts the results of experiments in which CFP-tagged Fas or CFP control vector were transiently expressed in Hepa 1-6 Cells (3×10^5). […] Cells were fixed and analyzed by fluorescence microscopy. […]

[5] = tested on: Fas self-assembly in Hepa 1-6 cells; test: FRET assay of CFP-Fas/YFP-Fas in transfected Hepa 1-6 cells; format: cell-based; conditions: Hepa 1-6, FasL for 15 minutes
Protocol: FIG. 3a presents data collected from Jurkat cells (1×10^6) treated with 2 μg/ml of Fas Ligand with or without AlphaMet for 30 minutes on ice. Cells were washed with PBS twice and then incubated with 2 mM of DTSSP in PBS for 30 minutes. The crosslinking process was stopped by 20 mM of Tris (pH 7.5) for another 30 minutes. Cells were spun down and washed with PBS twice and lyzed in RIPA buffer. Cell lysates were subjected to SDS-PAGE under non-reducing or reducing conditions (FIG. 3b) and Western blot analysis using the mouse monoclonal antibody against human Fas. FIG. 3c depicts the quantification of the data in FIG. 3a by densitometry. The data are the mean and SE from three different independent crosslinking and Western blot experiments. […] Frame A: Acceptor CFP-Fas image; Frame B: Acceptor pre-bleach CFP-Fas image; Frame C: Acceptor post-bleach image. Frame D: Donor YFP-Fas image; Frame E: Donor pre-bleach image; Frame F: Donor pre-bleach image. […] Cells were fixed and analyzed by fluorescence microscopy. […]
FRET assay. […] Fret efficiency (E) was calculated as FRETeff=(Dpost−Dpre)/Dpost (Dpost and Dpre are the mean emission intensity […] YFP bleaching).
Fluorescence protein tagged Fas molecules and Hepa 1-6 cells were used for these experiments. […] In these experiments the percent of Fas capping was also determined.

[6] = tested on: Fas capping in Hepa 1-6 cells; test: Fas capping of fluorescent protein tagged Fas in Hepa 1-6 cells; format: cell-based; conditions: Hepa 1-6, 30 minutes treatment
Protocol: FIG. 3a presents data collected from Jurkat cells (1×10^6) treated with 2 μg/ml of Fas Ligand with or without AlphaMet for 30 minutes on ice. Cells were washed with PBS twice and then incubated with 2 mM of DTSSP in PBS for 30 minutes. The crosslinking process was stopped by 20 mM of Tris (pH 7.5) for another 30 minutes. Cells were spun down and washed with PBS twice and lyzed in RIPA buffer. Cell lysates were subjected to SDS-PAGE under non-reducing or reducing conditions (FIG. 3b) and Western blot analysis using the mouse monoclonal antibody against human Fas. FIG. 3c depicts the quantification of the data in FIG. 3a by densitometry. The data are the mean and SE from three different independent crosslinking and Western blot experiments. […] Frame A: Acceptor CFP-Fas image; Frame B: Acceptor pre-bleach CFP-Fas image; Frame C: Acceptor post-bleach image. Frame D: Donor YFP-Fas image; Frame E: Donor pre-bleach image; Frame F: […]. The CFP-Fas strength in the selected region obtained a gain of 19.3% efficiency in the presence of FasL for 15 minutes. No FRET was observed without FasL. […] FIG. 3e depicts the results of experiments in which CFP-tagged Fas or CFP control vector were transiently expressed in Hepa 1-6 Cells (3×10^5). Cells were treated with 1 μg/ml of Fas ligand or 100 ng/ml of Jo2 with or without 5 μg/ml of AlphaMet or 1 μg/ml of YLGA 12 mer for 30 minutes on ice. Cells were fixed and analyzed by fluorescence microscopy. Frame A: AlphaMet treatment only, no FasL; Frame B: Fas ligand treatment only; Frame C: Fas ligand and AlphaMet treatment; Frame D: Fas ligand and 12 mer YLGA; Frame E: Jo2 treatment only and Frame F: Jo2 and AlphaMet treatment.
Fluorescence protein tagged Fas molecules and Hepa 1-6 cells were used for these experiments. These cells were transiently co-transfected with CFP and YFP chimeric Fas expression vectors using the lipofectamine 2000 method (Invitrogen). After 24 hours of transfection, about 50% of the cells were fluorescing. The cells were treated by Fas-ligand in the presence or absence of AlphaMet for 30 minutes. Treated cells were then fixed with cold methanol and subjected to FRET analysis. Cells were considered positive if FRET efficiency was over 10%. FRET phenomenon was observed only in cells that were treated with Fas-ligand. […] In these experiments the percent of Fas capping was also determined.

Row | Molecule | Fas trimerization (DTSSP crosslinking, Western blot, densitometry) [1] | FRET efficiency between CFP-Fas and YFP-Fas [2] | percent of fluorescent cells showing Fas capping [2] | death rate ([3]; Fas-ligand overnight, AlphaMet 5 μg/ml, Trypan Blue) | sub-G1 (apoptotic) population ([3]; Propidium Iodide flow cytometry, Fas-ligand) | intensity of trimeric Fas complex versus ligand unstimulated crosslinked cells [4] | FRET efficiency gain [5] | fluorescent cells showing Fas capping [6]
1 | soluble Fas Ligand (recombinant FasL) | 3 fold | 19.3% | 20% |  |  |  |  | 
2 | B1 |  |  |  | about 50% | 48% | about 3 fold | 19.3% | 20%
